Tests used:
Test in all cases: fluorescence polarisation; direct FP: S100 protein diluted in 50 nM labeled foldamer, 20 mM HEPES pH 7.5, 150 mM NaCl, 1 mM CaCl2, 0.5 mM TCEP, 0.01% Tween20; quadratic fit (ProFit); detection threshold Kd 1 mM
[1] = biological target: fWW, fluorescently labelled H14 foldamer WW
[2] = biological target: fTW, fluorescently labelled H14 foldamer TW
[3] = biological target: fTM, fluorescently labelled H14 foldamer TM
[4] = biological target: fYF, fluorescently labelled H14 foldamer YF
[5] = biological target: fWL, fluorescently labelled H14 foldamer WL
[6] = biological target: fIL, fluorescently labelled H14 foldamer IL
[7] = biological target: fTI, fluorescently labelled H14 foldamer TI
[8] = biological target: fIF, fluorescently labelled H14 foldamer IF
[9] = biological target: fRF, fluorescently labelled H14 foldamer RF
[10] = biological target: fRR, fluorescently labelled H14 foldamer RR
[11] = biological target: fVL, fluorescently labelled H14 foldamer VL

B1: S100A13 (natural protein)
chain: MAAEPLTELEESIETVVTTFFTFARQEGRKDSLSVNEFKELVTQQLPHLLKDVGSLDEKMKSLDVNQDSELKFNEYWRLIGELAKEIRKKKDLKIRKK
With B1 the Kd [1] was > 1000 µM, the Kd [2] was > 1000 µM and the Kd [3] was > 1000 µM. For the same binder, the Kd [4] was > 1000 µM, the Kd [5] was > 1000 µM and the Kd [6] was > 1000 µM. For the same binder, the Kd [7] was > 1000 µM, the Kd [8] was > 1000 µM and the Kd [9] was > 1000 µM. For the same binder, the Kd [10] was > 1000 µM and the Kd [11] was > 1000 µM.

B2: S100A3 (natural protein)
chain: MARPLEQAVAAIVCTFQEYAGRCGDKYKLCQAELKELLQKELATWTPTEFRECDYNKFMSVLDTNKDCEVDFVEYVRSLACLCLYCHEYFKDCPSEPPCSQ
B2 was tested, and the Kd [1] was 310 µM, the Kd [2] was > 1000 µM and the Kd [3] was > 1000 µM. The Kd [4] was > 1000 µM, the Kd [5] was > 1000 µM and the Kd [6] was > 1000 µM. For the same binder, the Kd [7] was > 1000 µM, the Kd [8] was 180 µM and the Kd [9] was > 1000 µM. The Kd [10] was > 1000 µM and the Kd [11] was > 1000 µM.

B3: S100A14 (natural protein)
chain: MGQCRSANAEDAQEFSDVERAIETLIKNFHQYSVEGGKETLTPSELRDLVTQQLPHLMPSNCGLEEKIANLGSCNDSKLEFRSFWELIGEAAKSVKLERPVRGH
B3 was tested, and the Kd [1] was > 1000 µM, the Kd [2] was > 1000 µM and the Kd [3] was > 1000 µM. The Kd [4] was > 1000 µM, the Kd [5] was > 1000 µM and the Kd [6] was > 1000 µM. The Kd [7] was > 1000 µM, the Kd [8] was > 1000 µM and the Kd [9] was > 1000 µM. For the same binder, the Kd [10] was > 1000 µM and the Kd [11] was > 1000 µM.

B4: S100G (natural protein)
chain: MSTKKSPEELKRIFEKYAAKEGDPDQLSKDELKLLIQAEFPSLLKGPNTLDDLFQELDKNGDGEVSFEEFQVLVKKISQ
B4 was tested, and the Kd [1] was > 1000 µM, the Kd [2] was > 1000 µM and the Kd [3] was > 1000 µM. For the same binder, the Kd [4] was > 1000 µM, the Kd [5] was > 1000 µM and the Kd [6] was > 1000 µM. For the same binder, the Kd [7] was > 1000 µM, the Kd [8] was > 1000 µM and the Kd [9] was > 1000 µM. For the same binder, the Kd [10] was > 1000 µM and the Kd [11] was > 1000 µM.

B5: S100A5 (natural protein)
chain: METPLEKALTTMVTTFHKYSGREGSKLTLSRKELKELIKKELCLGEMKESSIDDLMKSLDKNSDQEIDFKEYSVFLTMLCMAYNDFFLEDNK
B5 gave a Kd [1] of 77 µM, a Kd [2] of 62 µM and a Kd [3] of 200 µM. The Kd [4] was 32 µM, the Kd [5] was 14 µM and the Kd [6] was 75 µM. It also gave a Kd [7] of 270 µM, a Kd [8] of 27 µM and a Kd [9] of 46 µM. It also gave a Kd [10] of 45 µM and a Kd [11] of 110 µM.

B6: S100P (natural protein)
chain: MTELETAMGMIIDVFSRYSGSEGSTQTLTKGELKVLMEKELPGFLQSGKDKDAVDKLLKDLDANGDAQVDFSEFIVFVAAITSACHKYFEKAGLK
For B6, the Kd [1] was 190 µM, the Kd [2] was 170 µM and the Kd [3] was > 1000 µM. It also gave a Kd [4] of 79 µM, a Kd [5] of 75 µM and a Kd [6] of 330 µM. For the same binder, the Kd [7] was > 1000 µM, the Kd [8] was 140 µM and the Kd [9] was 190 µM. For the same binder, the Kd [10] was > 1000 µM and the Kd [11] was > 1000 µM.

B7: S100B (natural protein)
chain: MSELEKAMVALIDVFHQYSGREGDKHKLKKSELKELINNELSHFLEEIKEQEVVDKVMETLDNDGDGECDFQEFMAFVAMVTTACHEFFEHE
In the case of B7, the Kd [1] is reported as > 1000 µM, the Kd [2] is reported as 280 µM and the Kd [3] is reported as > 1000 µM. The Kd [4] was 28 µM, the Kd [5] was 11 µM and the Kd [6] was 63 µM. The Kd [7] was > 1000 µM, the Kd [8] was 140 µM and the Kd [9] was 230 µM. It also gave a Kd [10] of 210 µM and a Kd [11] of 50 µM.

B8: S100A16 (natural protein)
chain: MSDCYTELEKAVIVLVENFYKYVSKYSLVKNKISKSSFREMLQKELNHMLSDTGNRKAADKLIQNLDANHDGRISFDEYWTLIGGITGPIAKLIHEQEQQSSS
B8 was tested, and the Kd [1] was > 1000 µM, the Kd [2] was > 1000 µM and the Kd [3] was > 1000 µM. For the same binder, the Kd [4] was > 1000 µM, the Kd [5] was 300 µM and the Kd [6] was > 1000 µM. For the same binder, the Kd [7] was > 1000 µM, the Kd [8] was > 1000 µM and the Kd [9] was > 1000 µM. For the same binder, the Kd [10] was > 1000 µM and the Kd [11] was > 1000 µM.

B9: S100A9 (natural protein)
chain: MTCKMSQLERNIETIINTFHQYSVKLGHPDTLNQGEFKELVRKDLQNFLKKENKNEKVIEHIMEDLDTNADKQLSFEEFIMLMARLTWASHEKMHEGDEGPGHHHKPGLGEGTP
For B9, the Kd [1] was > 1000 µM, the Kd [2] was > 1000 µM and the Kd [3] was > 1000 µM. For the same binder, the Kd [4] was > 1000 µM, the Kd [5] was > 1000 µM and the Kd [6] was > 1000 µM. For the same binder, the Kd [7] was > 1000 µM, the Kd [8] was > 1000 µM and the Kd [9] was > 1000 µM. For the same binder, the Kd [10] was > 1000 µM and the Kd [11] was > 1000 µM.

B10: S100A12 (natural protein)
chain: MTKLEEHLEGIVNIFHQYSVRKGHFDTLSKGELKQLLTKELANTIKNIKDKAVIDEIFQGLDANQDEQVDFQEFISLVAIALKAAHYHTHKE
B10 was tested, and the Kd [1] was > 1000 µM, the Kd [2] was > 1000 µM and the Kd [3] was > 1000 µM. For the same binder, the Kd [4] was > 1000 µM, the Kd [5] was 250 µM and the Kd [6] was > 1000 µM. The Kd [7] was > 1000 µM, the Kd [8] was 590 µM and the Kd [9] was > 1000 µM. For the same binder, the Kd [10] was > 1000 µM and the Kd [11] was > 1000 µM.

B11: S100A11 (natural protein)
chain: MAKISSPTETERCIESLIAVFQKYAGKDGYNYTLSKTEFLSFMNTELAAFTKNQKDPGVLDRMMKKLDTNSDGQLDFSEFLNLIGGLAMACHDSFLKAVPSQKRT
For B11, the Kd [1] was > 1000 µM, the Kd [2] was 570 µM and the Kd [3] was > 1000 µM. For the same binder, the Kd [4] was > 1000 µM, the Kd [5] was > 1000 µM and the Kd [6] was > 1000 µM. The Kd [7] was > 1000 µM, the Kd [8] was 280 µM and the Kd [9] was 1000 µM. The Kd [10] was > 1000 µM and the Kd [11] was > 1000 µM.

B12: S100A8 (natural protein)
chain: MLTELEKALNSIIDVYHKYSLIKGNFHAVYRDDLKKLLETECPQYIRKKGADVWFKELDINTDGAVNFQEFLILVIKMGVAAHKKSHEESHKE
With B12 the Kd [1] was > 1000 µM, the Kd [2] was 770 µM and the Kd [3] was > 1000 µM. For the same binder, the Kd [4] was 180 µM, the Kd [5] was 74 µM and the Kd [6] was > 1000 µM. For the same binder, the Kd [7] was > 1000 µM, the Kd [8] was 750 µM and the Kd [9] was > 1000 µM. For the same binder, the Kd [10] was > 1000 µM and the Kd [11] was > 1000 µM.

B13: S100Z (natural protein)
chain: MPTQLEMAMDTMIRIFHRYSGKERKRFKLSKGELKLLLQRELTEFLSCQKETQLVDKIVQDLDANKDNEVDFNEFVVMVAALTVACNDYFVEQLKKKGK
In the case of B13, the Kd [1] is reported as > 1000 µM, the Kd [2] is reported as 520 µM and the Kd [3] is reported as > 1000 µM. For the same binder, the Kd [4] was > 1000 µM, the Kd [5] was > 1000 µM and the Kd [6] was > 1000 µM. For the same binder, the Kd [7] was > 1000 µM, the Kd [8] was 480 µM and the Kd [9] was 890 µM. The Kd [10] was > 1000 µM and the Kd [11] was > 1000 µM.
